The text below walks through data of US7534862.

Test [1] deals with hyper-IL-6 (H-IL-6), a fusion protein comprising IL-6+sIL-6R (UniProt P08887). In words: cell-based or functional assay.
Test [2] concerns the target IL-6/sIL-6R complex (100 ng/ml IL-6 + 50 ng/ml sIL-6R) (UniProt P05231). Nature of the test: cell-based or functional assay.

Chain of IL-6/sIL-6R complex (100 ng/ml IL-6 + 50 ng/ml sIL-6R) (P05231 30-212 limits assumed, chain 1 of 2): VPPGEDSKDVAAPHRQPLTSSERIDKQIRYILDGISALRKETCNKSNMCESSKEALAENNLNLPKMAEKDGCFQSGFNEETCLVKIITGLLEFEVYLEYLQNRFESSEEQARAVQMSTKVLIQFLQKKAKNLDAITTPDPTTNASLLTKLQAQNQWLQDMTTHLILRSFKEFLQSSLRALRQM
Chain of IL-6/sIL-6R complex (100 ng/ml IL-6 + 50 ng/ml sIL-6R) (P08887 20-358 limits assumed, chain 2 of 2, further chain): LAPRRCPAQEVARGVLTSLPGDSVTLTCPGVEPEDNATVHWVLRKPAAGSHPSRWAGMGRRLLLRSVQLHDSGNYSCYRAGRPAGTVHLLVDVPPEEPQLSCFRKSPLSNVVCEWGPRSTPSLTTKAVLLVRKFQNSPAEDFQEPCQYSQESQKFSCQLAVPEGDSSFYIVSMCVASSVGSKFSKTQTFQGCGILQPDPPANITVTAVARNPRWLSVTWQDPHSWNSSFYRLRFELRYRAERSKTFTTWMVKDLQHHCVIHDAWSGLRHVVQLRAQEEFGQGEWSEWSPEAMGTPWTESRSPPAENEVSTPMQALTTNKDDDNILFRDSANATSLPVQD
Chain of hyper-IL-6 (H-IL-6), a fusion protein comprising IL-6+sIL-6R (P08887 20-323 limits assumed, chain 1 of 2): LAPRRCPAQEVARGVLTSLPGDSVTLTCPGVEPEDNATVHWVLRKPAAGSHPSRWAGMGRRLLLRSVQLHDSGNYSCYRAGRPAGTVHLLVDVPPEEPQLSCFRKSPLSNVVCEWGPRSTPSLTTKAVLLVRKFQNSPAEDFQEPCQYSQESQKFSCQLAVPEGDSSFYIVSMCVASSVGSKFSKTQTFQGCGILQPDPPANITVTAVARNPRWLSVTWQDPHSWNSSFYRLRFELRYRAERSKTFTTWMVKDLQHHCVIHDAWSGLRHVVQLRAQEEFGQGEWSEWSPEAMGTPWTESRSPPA
Chain of hyper-IL-6 (H-IL-6), a fusion protein comprising IL-6+sIL-6R (P05231 30-212 limits assumed, chain 2 of 2, further chain): as the sequence (P05231 30-212 limits assumed, chain 1 of 2) above

B1: sgp130PEG (PEGylated sgp130(D1-D3)-Pn dimer) (receptor, part only)
chain: MLTLQTWVVQALFIFLTTESTGELLDPCGYISPESPVVQLHSNFTAVCVLKEKCMDYFHVNANYIVWKTNHFTIPKEQYTIINRTASSVTFTDIASLNIQLTCNILTFGQLEQNVYGITIISGLPPEKPKNLSCIVNEGKKMRCEWDGGRETHLETNFTLKSEWATHKFADCKAKRDTPTSCTVDYSTVYFVNIEVWVEAENALGKVTSDHINFDPVYKVKPNPPHNLSVINSEELSSILKLTWTNPSIKSVIILKYNIQYRTKDASTWSQIPPEDTASTRSSFTVQDLKPFTEYVFRIRCMKEDGKGYWSDWSEEASGITYEDRP
modifications: C-terminal Pn cysteine peptide unsequenced; PEGylated; disulfide dimer
In the case of B1, in test [1], the STAT3 activity (relative luciferase activity, pSTAT3-TA-Luc reporter in BAF/gp130 cells) at 10 ug/ml inhibitor, 5 ng/ml H-IL-6 (% of activity with H-IL-6 alone) was 18; the concentration giving half-maximal activation of STAT3 (H-IL-6-induced, luciferase reporter in BAF/gp130 cells) worked out at 2.5 µg/mL; the efficiency relative to sgp130Fc in inhibition of H-IL-6-induced STAT3 activation (fold vs sgp130Fc) was 2 to 3; the factor of improvement over sgp130Fc in inhibition of BAF/gp130 proliferation (fold vs sgp130Fc) was in the range of 1.5 to 3. This molecule came in with a half-maximal [3H]-thymidine incorporation of BAF/gp130 cells (proliferation) in test [1] of 1 to 5 ng/mL. In addition, in test [2], the factor of improvement over sgp130Fc in inhibition of BAF/gp130 proliferation (fold vs sgp130Fc) fell in the range of 1.5 to 3 and the half-maximal [3H]-thymidine incorporation of BAF/gp130 cells (proliferation) was 1 to 5 ng/mL.
